B1: scFv; the commonest letter at each place (parent)
chain 1: EVKLDETGGGLVQPGRPMKLSCVASGFTFSDYWMNWVRQSPEKGLEWVAQIRNKPYNYETYYSDSVKGRFTISRDDSKSSVYLQMNNLRVEDMGIYYCTGSYYGMDYWGQGTSVTVS
chain 2: DVVMTQTPLSLPVSLGDQASISCRSSQSLVHSNGNTYLRWYLQKPGQSPKVLIYKVSNRFSGVPDRFSGSGSGTDFTLKISRVEAEDLGVYFCSQSTHVPWTFGGGTKLEIK

The variants in data set [1] derive from B1. Briefly: Kd (Tite-Seq). To be noted: with fluorescein; format: scFv 4-4-20, heavy + light.
In data set [2] the parent is B1. The experiment in a line: yeast surface expression (ratio to wild type); higher = more expressed. As to conditions: format: scFv 4-4-20, heavy + light.

Where only a bound is given, the exact number is not on record here.

As for chain 1 S101H Y103L, in data set [1], the Kd is at least 10 µM. Also, in data set [2], the yeast surface expression was 0.78.
Regarding chain 1 Y102L Y107C G109A, in data set [1], the Kd was at least 10 µM. The yeast surface expression in data set [2] is 0.168.
On to chain 1 F29L M34C, for which the Kd in data set [1] was at least 10 µM. Further, in data set [2], the yeast surface expression was determined as 0.745.
chain 1 S101T Y102H: the Kd in data set [1] is at least 10 µM. Moreover, in data set [2], the yeast surface expression amounted to 0.748.
Turning to chain 1 D106N G109K, in data set [1], the Kd is at least 10 µM. The yeast surface expression in data set [2] is 0.277.
Consider chain 1 F29W S30I, for which the Kd in data set [1] was at least 10 µM. For the same variant, the yeast surface expression in data set [2] is 0.599.
For chain 1 G100N G109H, the Kd in data set [1] is at least 10 µM. The yeast surface expression in data set [2] was 0.236.
With chain 1 S101L Y102W, the Kd in data set [1] is at least 10 µM. Further, the yeast surface expression in data set [2] stood at 0.407.
The matching figures for chain 1 Y103I Y107F W108D: at least 10 µM and 0.437.
As to chain 1 M34Y N35V, the Kd in data set [1] is at least 10 µM. Also, the yeast surface expression in data set [2] was determined as 0.434.
Regarding chain 1 M34Y N35R, the Kd in data set [1] was at least 10 µM. For the same variant, the yeast surface expression in data set [2] was found to be 0.505.
chain 1 S30F N35C: in data set [1], the Kd is at least 10 µM. The yeast surface expression in data set [2] worked out at 0.555.
As to chain 1 W108E, the Kd in data set [1] was at least 10 µM. For the same variant, in data set [2], the yeast surface expression is 0.463.
chain 1 G104A D106Q Y107E: the Kd in data set [1] is at least 10 µM. Further, the yeast surface expression in data set [2] was determined as 0.519.
Take chain 1 Y107Q W108Q: in data set [1], the equilibrium dissociation constant (Kd) was at least 10 µM. Moreover, the yeast surface expression in data set [2] was determined as 0.385.
For chain 1 D106N Y107F, in that order: 0.00361 µM and 0.715.
The matching figures for chain 1 D31P: at least 10 µM and 0.853.
For chain 1 D31Y, in that order: 0.00334 µM and 0.729.
chain 1 D31W: the Kd in data set [1] turned out to be 0.00293 µM. In addition, in data set [2], the yeast surface expression came to 0.566.
The matching figures for chain 1 D31R W33S M34P: at least 10 µM and 0.182.
On to chain 1 G100Q D106H, for which, in data set [1], the Kd is at least 10 µM. The yeast surface expression in data set [2] stood at 0.182.
For chain 1 G100Q D106I, in that order: at least 10 µM and 0.184.
For chain 1 M105R Y107G, in that order: at least 10 µM and 0.615.
Regarding chain 1 Y32Q M34G V37K, the Kd in data set [1] was at least 10 µM. The yeast surface expression in data set [2] worked out at 1.04.
For chain 1 D31W W33G, the Kd in data set [1] amounted to 9.02 µM. Besides, the yeast surface expression in data set [2] was found to be 0.542.
In the case of chain 1 D31V W36G, the Kd in data set [1] is at least 10 µM. Besides, the yeast surface expression in data set [2] stood at 2.19.
For the variant chain 1 T28E Y32R, the Kd in data set [1] stood at 0.0318 µM. Besides, the yeast surface expression in data set [2] stood at 0.928.
For chain 1 Y103H G104F, in that order: at least 10 µM and 0.477.
With chain 1 Y32I W33T N35A, the Kd in data set [1] was at least 10 µM. The yeast surface expression in data set [2] worked out at 0.824.
On to chain 1 D31W W36E, for which the Kd in data set [1] was at least 10 µM. Further, in data set [2], the yeast surface expression came out at 1.08.
Consider chain 1 G100W S101L, for which the Kd in data set [1] was at least 10 µM. In data set [2], the yeast surface expression came out at 0.293.
In the case of chain 1 D31N N35S V37A, the Kd in data set [1] was at least 10 µM. Also, the yeast surface expression in data set [2] came to 0.656.
Turning to chain 1 Y103C G104C, in data set [1], the Kd was at least 10 µM. Moreover, the yeast surface expression in data set [2] was determined as 0.223.
As for chain 1 Y32D N35Y, the Kd in data set [1] is at least 10 µM. Besides, the yeast surface expression in data set [2] was 0.498.
As for chain 1 M105P G109T, in data set [1], the Kd is at least 10 µM. The yeast surface expression in data set [2] is 0.291.
For chain 1 F29S N35R, the Kd in data set [1] amounted to 0.0434 µM. For the same variant, the yeast surface expression in data set [2] was found to be 0.922.
The matching figures for chain 1 S30H V37F: 0.0562 µM and 0.754.
With chain 1 Y102G G104H, the Kd in data set [1] is at least 10 µM. Further, in data set [2], the yeast surface expression was 1.06.
Turning to chain 1 G100Q M105S, in data set [1], the Kd was at least 10 µM. Also, in data set [2], the yeast surface expression was found to be 0.521.
Regarding chain 1 G100C M105F, the Kd in data set [1] was at least 10 µM. Moreover, in data set [2], the yeast surface expression was 0.642.
As to chain 1 S101N W108P, the Kd in data set [1] was at least 10 µM. Moreover, in data set [2], the yeast surface expression is 0.506.
As to chain 1 T28K S30I, in data set [1], the Kd was determined as 0.00135 µM. The yeast surface expression in data set [2] is 0.889.
Take chain 1 G104C M105I: in data set [1], the dissociation constant Kd was at least 10 µM. In data set [2], the yeast surface expression was 0.349.
Regarding chain 1 S30P D31A Y32H, the Kd in data set [1] is at least 10 µM. In data set [2], the yeast surface expression is 0.725.
Turning to chain 1 G100L G109R, the Kd in data set [1] is at least 10 µM. Besides, in data set [2], the yeast surface expression was determined as 0.268.
As to chain 1 T28Q V37L, the Kd in data set [1] turned out to be 3.55 µM. Further, the yeast surface expression in data set [2] turned out to be 0.864.
Take chain 1 W36F V37C: the equilibrium dissociation constant (Kd) in data set [1] was determined as 0.000454 µM. The yeast surface expression in data set [2] came to 0.75.
For chain 1 D31S M34I, in that order: 0.004 µM and 0.757.
On to chain 1 G100V G104F, for which, in data set [1], the Kd was at least 10 µM. Also, in data set [2], the yeast surface expression worked out at 0.472.
On to chain 1 N35F V37A, for which the equilibrium dissociation constant (Kd) in data set [1] is at least 10 µM. The yeast surface expression in data set [2] came out at 0.871.
For chain 1 S30I M34V, the Kd in data set [1] stood at 0.0113 µM. For the same variant, the yeast surface expression in data set [2] came out at 0.753.
Take chain 1 G100A D106W: the Kd in data set [1] is at least 10 µM. For the same variant, the yeast surface expression in data set [2] came out at 0.393.
Take chain 1 G100D S101I: the Kd in data set [1] was at least 10 µM. For the same variant, the yeast surface expression in data set [2] is 0.0999.
For chain 1 M105C G109V, in that order: at least 10 µM and 0.171.
For the variant chain 1 S30G D31H S101A Y102S D106E W108L, the Kd in data set [1] was determined as 0.000351 µM. The yeast surface expression in data set [2] turned out to be 0.844.
For chain 1 D31T V37S, the Kd in data set [1] is at least 10 µM. The yeast surface expression in data set [2] worked out at 0.269.
As to chain 1 G100Y G109P, the Kd in data set [1] was at least 10 µM. For the same variant, in data set [2], the yeast surface expression was found to be 0.22.
For chain 1 Y107I G109K, in that order: at least 10 µM and 0.234.

The record behind these values is the FLAb antibody collection (doi:10.7554/elife.23156).
